Measured values reported in patent US20110045003A1 (SYNOVEX, published 2011).
Residue numbers refer to the chain shown, from its start. In names and notes the source's numbering stands.

T1: recombinant Cad-11 EC1 human IgG1 fusion protein (R&D Systems Cat. No. 1790-CA-050) (human, UniProt P55287 54-617, limits assumed)
T1 construct: Bought protein; the catalogue product may hold more of the extracellular region; also called recombinant human Cad-11 EC1; recombinant human Cad-11 fusion protein; not shown: human IgG1 part of the bought fusion protein
T1 sequence: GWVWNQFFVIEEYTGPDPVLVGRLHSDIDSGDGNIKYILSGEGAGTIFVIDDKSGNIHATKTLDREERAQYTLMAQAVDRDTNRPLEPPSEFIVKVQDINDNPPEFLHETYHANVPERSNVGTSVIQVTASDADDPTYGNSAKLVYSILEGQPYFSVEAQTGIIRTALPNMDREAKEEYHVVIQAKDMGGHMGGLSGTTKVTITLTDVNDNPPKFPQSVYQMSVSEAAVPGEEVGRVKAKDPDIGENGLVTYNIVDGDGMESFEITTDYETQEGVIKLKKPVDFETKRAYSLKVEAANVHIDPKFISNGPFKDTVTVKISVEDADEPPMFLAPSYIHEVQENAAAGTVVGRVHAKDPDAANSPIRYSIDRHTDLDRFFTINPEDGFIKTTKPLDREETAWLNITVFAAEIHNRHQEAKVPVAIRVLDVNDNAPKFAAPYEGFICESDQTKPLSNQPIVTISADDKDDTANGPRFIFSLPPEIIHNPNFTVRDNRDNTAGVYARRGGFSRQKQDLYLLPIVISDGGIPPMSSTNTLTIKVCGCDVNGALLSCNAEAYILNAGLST

T2: BSA coupled 37-mer Cad-11 peptide encompassing the Cad-11 immunogen (UniProt P55287 54-90, limits assumed, linked to BSA)
T2 construct: domain: 37-mer peptide encompassing the Cad-11 immunogen; also called Cad-11 antigen; Cad-11 peptide immunogen
T2 peptide (looked up): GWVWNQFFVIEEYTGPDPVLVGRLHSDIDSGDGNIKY

B1: humanized anti-Cad-11 antibody SDP081 (Vκ2/VH3) (antibody, IgG4, V domains shown)
VH: EVQLVQSGAEVKKPGASVKISCKASGYSFTGYFMNWVRQAPGQGLEWIGRINPYTGDTFYNQKFKGRATLTVDKSTSTAYMELSSLRSEDTAVYYCGRLGSRYWYFDVWGQGTTVTVSS
VL: DVLMTQTPLSSPVTLGQPASISCRSSQSIIHSNGNTYLEWYLQKPGQSPQLLIYKVSNRFSGVPDRFSGSGSGTDFTLKISRVEAEDVGVYYCFQGSHVPWTFGQGTKLEIK
notes: humanized IgG4 (S241P), kappa
B2: humanized anti-Cad-11 antibody SDP101 (Vκ2/VH5) (antibody, IgG4, V domains shown)
VH: B1 VH with I20V, A68V, L70I
VL: B1 VL
notes: humanized IgG4 (S241P), kappa
B3: humanized anti-Cad-11 antibody SDP091 (Vκ2/VH4) (antibody, IgG4, V domains shown)
VH: B1 VH with I20V, L70I
VL: B1 VL
notes: humanized IgG4 (S241P), kappa
B4: humanized anti-Cad-11 antibody SDP031 (Vκ1/VH3) (antibody, IgG4, V domains shown)
VH: B1 VH
VL: B1 VL with S68T
notes: humanized IgG4 (S241P), kappa
B5: humanized anti-Cad-11 antibody SDP141 (Vκ3/VH4) (antibody, IgG4, V domains shown)
VH: B1 VH with I20V, L70I
VL: B1 VL with L3V
notes: humanized IgG4 (S241P), kappa
B6: humanized anti-Cad-11 antibody SDP111 (Vκ3/VH1) (antibody, IgG4, V domains shown)
VH: B1 VH with A9P, V11L, R38K, P41H, T76S, S84V, R87S, T91S
VL: B1 VL with L3V
notes: humanized IgG4 (S241P), kappa
B7: humanized anti-Cad-11 antibody SDP131 (Vκ3/VH3) (antibody, IgG4, V domains shown)
VH: B1 VH
VL: B1 VL with L3V
notes: humanized IgG4 (S241P), kappa
B8: humanized anti-Cad-11 antibody SDP121 (Vκ3/VH2) (antibody, IgG4, V domains shown)
VH: B1 VH with R38K
VL: B1 VL with L3V
notes: humanized IgG4 (S241P), kappa
B9: humanized anti-Cad-11 antibody SDP011 (Vκ1/VH1) (antibody, IgG4, V domains shown)
VH: B1 VH with A9P, V11L, R38K, P41H, T76S, S84V, R87S, T91S
VL: B1 VL with S68T
notes: humanized IgG4 (S241P), kappa
B10: humanized anti-Cad-11 antibody SDP021 (Vκ1/VH2) (antibody, IgG4, V domains shown)
VH: B1 VH with R38K
VL: B1 VL with S68T
notes: humanized IgG4 (S241P), kappa
B11: humanized anti-Cad-11 antibody SDP061 (Vκ2/VH1) (antibody, IgG4, V domains shown)
VH: B1 VH with A9P, V11L, R38K, P41H, T76S, S84V, R87S, T91S
VL: B1 VL
notes: humanized IgG4 (S241P), kappa
B12: humanized anti-Cad-11 antibody SDP041 (Vκ1/VH4) (antibody, IgG4, V domains shown)
VH: B1 VH with I20V, L70I
VL: B1 VL with S68T
notes: humanized IgG4 (S241P), kappa
B13: humanized anti-Cad-11 antibody SDP151 (Vκ3/VH5) (antibody, IgG4, V domains shown)
VH: B1 VH with I20V, A68V, L70I
VL: B1 VL with L3V
notes: humanized IgG4 (S241P), kappa
B14: humanized anti-Cad-11 antibody SDP071 (Vκ2/VH2) (antibody, IgG4, V domains shown)
VH: B1 VH with R38K
VL: B1 VL
notes: humanized IgG4 (S241P), kappa

Tests used:
[1] = biological target: human Cadherin-11 protein expressed on 431-D-11 cells (human) (UniProt P55287); assay: cell-based or functional assay
[2] = biological target: T1, recombinant Cad-11 EC1 human IgG1 …; assay: competition ELISA on coated recombinant human Cad-11 EC1 fusion; competitor biotinylated SYN0012/H1M1 at 0.1 µg/ml
Experimental: (§1) The binding of the purified humanized composite variant antibodies (SDP011 to SDP151) to a recombinant Cad-11 EC1 human IgG1 fusion protein was assessed in a competition binding ELISA. A dilution series from 5 μg/ml to 0.0022 μg/ml of the humanized or control (SYN0012/H1M1) antibodies was premixed with a constant concentration of biotinylated murine anti-Cad-11 antibody, SYN0012/H1M1 (0.1 μg/ml, final concentration), before incubating for 1 hour at room temperature on a Nunc Immuno MaxiSorp 96 well flat bottom microtitre plate (Fisher Cat. No. DIS-971-030J) pre-coated with 0.25 μg/ml recombinant human Cad-11 EC1 (R&D Systems Cat. No. 1790-CA-050) diluted in PBS. The binding of the biotinylated mAb was detected with streptavidin-HRP (Sigma Cat. No. 55512) and tetramethylbenzidine (TMB) substrate (Invitrogen Cat. No. 00-2023).
The relative IC50 was calculated by dividing the value for the test antibody by that of SYN0012. Antibody expression levels given are for static cultures in T flasks. PI are calculated.

[3] = biological target: T2, BSA coupled 37-mer Cad-11 peptide …; assay: ELISA, BSA-coupled 37-mer cadherin peptide coated at 500 ng/ml, antibody titrated, A450
Experimental: Reactibind plates (ThermoScientific) were coated with 500 ng/ml of the BSA coupled cadherin 37-mer peptide (NE peptide) corresponding to Cadherins-7, -8, -9, -11, -18, -20, and -24 in 0.05% Tween (EMD, product code 9480) in PBS (pH 7.2) (Gibco(Invitrogen), #20012) at 100 μl volume/well for overnight at 4° C. The peptide containing solution was removed from the well and the plate blocked with a 2% bovine serum albumin (BSA) in PBS, 200 μl volume/well, for 2 h at 22° C. The plate was then washed twice with 200 μl/well of PBS-Tween 0.05% at 22° C. and blotted dry. A dilution series from 5 μg/ml to 8 ng/ml in a volume of 100 μl/well of each the humanized anti-Cad-11 antibodies were incubated in the peptide coated wells and incubated at 22° C. for 1 hr. Antibody solution was removed from the wells and the plate washed twice with 200 μl/well of 0.05% Tween-PBS at 22° C. and blotted dry. The goat-anti mouse IgG (Pierce # 31432) was added to each well to plate at a 1:1000 dilution, 100 μl/well and incubate at 22° C. for 30 min. The secondary antibody solution was removed and the plate washed twice with 200 μl/well of 0.05% Tween-PBS at 22° C. and blotted dry. The reaction was developed by adding 100 μl/well tetramethylbenzidine (TMB) reagent IgG (Pierce # 34022, 1 step Turbo TMB-ELISA) to plate and developed at 22° C. for 5 min.

[4] = biological target: T2, BSA coupled 37-mer Cad-11 peptide …; assay: ELISA on BSA coupled 37-mer cadherin peptides, coat 500 ng/ml
Experimental: A dilution series from 5 μg/ml to 8 ng/ml in a volume of 100 μl/well of each the humanized anti-Cad-11 antibodies were incubated in the peptide coated wells and incubated at 22° C. for 1 hr. Antibody solution was removed from the wells and the plate washed twice with 200 μl/well of 0.05% Tween-PBS at 22° C. and blotted dry. The goat-anti mouse IgG (Pierce # 31432) was added to each well to plate at a 1:1000 dilution, 100 μl/well and incubate at 22° C. for 30 min. The secondary antibody solution was removed and the plate washed twice with 200 μl/well of 0.05% Tween-PBS at 22° C. and blotted dry. The reaction was developed by adding 100 μl/well tetramethylbenzidine (TMB) reagent IgG (Pierce # 34022, 1 step Turbo TMB-ELISA) to plate and developed at 22° C. for 5 min.
The greatest cross reactivity was seen against Cad-8. […] This assay was repeated with the Cad-11, Cad-8 and Cad-18 antigens with a lower antigen coat concentration of 50 ng/ml and a wider dilution series of the SDP051 antibody (FIG. 41B). […] An EC50 for Cad-18 could not be established due to the low level of binding observed.

[5] = biological target: T1, recombinant Cad-11 EC1 human IgG1 …; assay: competition ELISA on coated recombinant human Cad-11 EC1 fusion protein; competitor biotinylated SYN0012 at 0.1 µg/ml, streptavidin-HRP, OD450
Experimental: as §1

[6] = biological target: T1, recombinant Cad-11 EC1 human IgG1 …; assay: competition ELISA: antibody dilution series premixed with biotinylated SYN0012/H1M1 (0.1 µg/ml) on plate-coated recombinant human Cad-11 EC1 fusion protein; OD450 = bound biotinylated SYN0012
Experimental: as §1

Molecule | in vitro cell aggregation assay [1] [µg/mL] | relative IC50 (IC50 of the test antibody divided by that of SYN0012) [2] | EC50 (read off the curve) [3] [µg/mL] | fold greater binding to the Cad-11 antigen than to the related antigens from the other cadherins [4] [fold] | IC50 (read off the curve) [5] [µg/mL] | IC50 (read off the curve) [6] [µg/mL]
human Cad-11-EC1-hIgG2-Fc1 fusion protein (Fc fusion) | 3 |  |  |  |  | 
B1 |  | 0.42 ratio (column head prints µg/mL) | ~0.08 |  |  | 
B2 |  | 0.53 ratio (column head prints µg/mL) | ~0.07 |  |  | 
B3 |  | 0.57 ratio (column head prints µg/mL) | ~0.07 |  |  | 
B4 |  | 0.84 ratio (column head prints µg/mL) | ~0.06 | > 20 | ~0.2 | 
B5 |  | 0.61 ratio (column head prints µg/mL) | ~0.06 |  |  | ~0.2
B6 |  | 0.68 ratio (column head prints µg/mL) | ~0.07 |  |  | ~0.2
B7 |  | 0.55 ratio (column head prints µg/mL) | ~0.07 |  |  | ~0.2
B8 |  | 0.52 ratio (column head prints µg/mL) | ~0.06 |  |  | ~0.2
B9 |  | 0.91 ratio (column head prints µg/mL) | ~0.07 |  | ~0.2 | 
B10 |  | 0.67 ratio (column head prints µg/mL) | ~0.06 |  | ~0.1 | 
B11 |  | 0.47 ratio (column head prints µg/mL) | ~0.06 | > 20 |  | 
B12 |  | 0.65 ratio (column head prints µg/mL) | ~0.06 |  | ~0.1 | 
B13 |  | 0.72 ratio (column head prints µg/mL) | ~0.06 |  |  | ~0.2
B14 |  | 0.33 ratio (column head prints µg/mL) | ~0.07 | > 20 |  | 
